{"source": "patent US20120020948A1", "about": "“DAG-TYPE AND INDIRECT PROTEIN KINASE C ACTIVATORS AND ANTICOAGULANT FOR THE TREATMENT OF STROKE” (priority 2010, published 2012)", "molecules": {"B1": {"name": "rTPA: recombinant tissue plasminogen activator, thrombolytic serine protease approved for ischemic stroke (protein, UniProt P00750 36-562, looked up)", "Tissue-type plasminogen …": "SYQVICRDEKTQMIYQQHQSWLRPVLRSNRVEYCWCNSGRAQCHSVPVKSCSEPRCFNGGTCQQALYFSDFVCQCPEGFAGKCCEIDTRATCYEDQGISYRGTWSTAESGAECTNWNSSALAQKPYSGRRPDAIRLGLGNHNYCRNPDRDSKPWCYVFKAGKYSSEFCSTPACSEGNSDCYFGNGSAYRGTHSLTESGASCLPWNSMILIGKVYTAQNPSAQALGLGKHNYCRNPDGDAKPWCHVLKNRRLTWEYCDVPSCSTCGLRQYSQPQFRIKGGLFADIASHPWQAAIFAKHRRSPGERFLCGGILISSCWILSAAHCFQERFPPHHLTVILGRTYRVVPGEEEQKFEVEKYIVHKEFDDDTYDNDIALLQLKSDSSRCAQESSVVRTVCLPPADLQLPDWTECELSGYGKHEALSPFYSERLKEAHVRLYPSSRCTSQHLLNRTVTDNMLCAGDTRSGGPQANLHDACQGDSGGPLVCLNDGRMTLVGIISWGLGCGQKDVPGVYTKVTNYLDWIRDNMRP"}}, "test_system": "rats with focal ischemia (MCAO)", "assay": "Mortality after focal ischemia (MCAO) stroke", "type": "in vivo", "conditions": "rTPA i.v. 6 hours after the stroke, with or without bryostatin-1 2 hours later", "method": "A transient animal model of focal ischemia was used for these experiments. The middle cerebral artery (MCA) was surgically dissected and occluded in anesthetized rats by ligature, followed by reperfusion after a defined period (about 2 hours). Animal models transient ischemia via occlusion of the MCA (MCAO) are described in, e.g., Sicard and Fisher, Exp. & Transl. Stroke Med. (2009), vol. 1, pp. 1-7.\nIn contrast, if rTPA was given 6 hours after the stroke, in the absence of subsequent treatment with bryostatin, 44% mortality was observed (N=6 animals).", "data": [{"molecule": "B1", "values": [{"measurement": "mortality 24 hours later", "value": 44, "unit": "%"}]}]}
